Results on one substance are retold here after publication PMC11282748.

This assay concerns the target foldase protein PrsA of Staphylococcus aureus MW2 (recombinant, without signal peptide) (Staphylococcus aureus MW2). The experiment in a line: SEC-MALS; Superdex 200 Increase 10/300; ~1 mg of protein loaded; 50 mM Tris-HCl, 150 mM NaCl, 2.5% (v/v) glycerol, pH 7.8; flow 0.4 ml/min. In general terms: In gel filtration, larger molecules generally elute earlier.

Broadly, the stoichiometry N is the number of molecules, sites or subunits per partner or assembly.

Regarding “foldase protein PrsA of Staphylococcus aureus MW2 (recombinant, without signal peptide) (natural protein)”, the stoichiometry N was found to be 2.
